US20060251658A1 (Sanofi, published 2006)
Values belong to the binder of their own block, whether it stands above or below them.

Molecular target: Recombinant human TGFβ1 (human, UniProt P01137 279-390)
Experiment: cell-based or functional assay

Sequence of Recombinant human TGFβ1 (P01137 279-390 limits assumed): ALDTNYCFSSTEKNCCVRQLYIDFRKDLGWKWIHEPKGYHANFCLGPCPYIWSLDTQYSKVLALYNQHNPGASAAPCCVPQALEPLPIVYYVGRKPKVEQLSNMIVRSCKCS

- Geometric Mean IC50, MLEC proliferation assay (n = 6; full dose response curve not obtained): < 1 nM
B1: PET1074B9 germlined IgG4 (antibody, V domains shown)
VH: QVQLVQSGAEVKKPGSSVKVSCKASGYTFSSNVISWVRQAPGQGLEWMGGVIPIVDIANYAQRFKGRVTITADESTSTTYMELSSLRSEDTAVYYCALPRAFVLDAMDYWGQGTLVTVSS
VL: ETVLTQSPGTLSLSPGERATLSCRASQSLGSSYLAWYQQKPGQAPRLLIYGASSRAPGIPDRFSGSGSGTDFTLTISRLEPEDFAVYYCQQYADSPITFGQGTRLEIK

- % neutralisation at 91 pM antibody, MLEC proliferation assay: 12%
B2: 1D11.16 murine pan-specific anti-TGFβ monoclonal antibody (antibody, from another filing, V domains shown)
VH: QVQLQQSGPELVRPGASVKLSCKASGYIFITYWMNWVKQRPGQGLEWIGQIFPASGSTNYNEMFEGKATLTVDTSSSTAYMQLSSLTSEDSAVYYCARGDGNYALDAMDYWGQGTSVTVSS
VL: DIVLTQSPASLAVSLGQRATISCRASESVDSYGNSFMHWYQQKSGQPPKLLIYLASNLESGVPARFSGSGSRTDFTLTIDPVEADDAATYYCQQNNEDPLTFGAGTKLEIK
